Test results from article PMC7691508 (Nature Communications, 2020).

What was measured:
[1] = target: T1, IFN regulatory factor 3 (IRF3) (mouse (endogenous in peritoneal macrophages, RAW264.7, L929, MEFs)), P70671; assay: native gel or EMSA; conditions: remark: other sources report otherwise
T1 chain: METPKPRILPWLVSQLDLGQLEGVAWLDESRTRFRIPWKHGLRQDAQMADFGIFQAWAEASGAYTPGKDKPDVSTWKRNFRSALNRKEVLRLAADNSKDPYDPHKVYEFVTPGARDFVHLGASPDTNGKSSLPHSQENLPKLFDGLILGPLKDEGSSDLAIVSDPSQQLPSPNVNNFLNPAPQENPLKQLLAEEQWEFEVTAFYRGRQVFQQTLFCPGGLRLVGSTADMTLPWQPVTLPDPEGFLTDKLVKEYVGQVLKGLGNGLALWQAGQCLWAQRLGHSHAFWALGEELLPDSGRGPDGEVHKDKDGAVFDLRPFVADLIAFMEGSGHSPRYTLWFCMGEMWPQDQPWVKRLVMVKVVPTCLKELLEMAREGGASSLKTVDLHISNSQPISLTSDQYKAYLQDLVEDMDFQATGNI

native gel or EMSA = target: the molecule itself; assay: native gel or EMSA

B1: IFN regulatory factor 3 (IRF3), P70671 1-419 (natural protein)
chain: T1 chain
- stoichiometry N [1]: 2

B2: stimulator of interferon genes (STING) (natural protein)
chain: MPYSNLHPAIPRPRGHRSKYVALIFLVASLMILWVAKDPPNHTLKYLALHLASHELGLLLKNLCCLAEELCHVQSRYQGSYWKAVRACLGCPIHCMAMILLSSYFYFLQNTADIYLSWMFGLLVLYKSLSMLLGLQSLTPAEVSAVCEEKKLNVAHGLAWSYYIGYLRLILPGLQARIRMFNQLHNNMLSGAGSRRLYILFPLDCGVPDNLSVVDPNIRFRDMLPQQNIDRAGIKNRVYSNSVYEILENGQPAGVCILEYATPLQTLFAMSQDAKAGFSREDRLEQAKLFCRTLEEILEDVPESRNNCRLIVYQEPTDGNSFSLSQEVLRHIRQEEKEEVTMNAPMTSVAPPPSVLSQEPRLLISGMDQPLPLRTDLI
- stoichiometry N (native gel or EMSA): 2
